This assay concerns the target T1, aromatase (rat (endogenous in hypothalamus and …, UniProt P22443 1-508)).
T1 sequence (looked up): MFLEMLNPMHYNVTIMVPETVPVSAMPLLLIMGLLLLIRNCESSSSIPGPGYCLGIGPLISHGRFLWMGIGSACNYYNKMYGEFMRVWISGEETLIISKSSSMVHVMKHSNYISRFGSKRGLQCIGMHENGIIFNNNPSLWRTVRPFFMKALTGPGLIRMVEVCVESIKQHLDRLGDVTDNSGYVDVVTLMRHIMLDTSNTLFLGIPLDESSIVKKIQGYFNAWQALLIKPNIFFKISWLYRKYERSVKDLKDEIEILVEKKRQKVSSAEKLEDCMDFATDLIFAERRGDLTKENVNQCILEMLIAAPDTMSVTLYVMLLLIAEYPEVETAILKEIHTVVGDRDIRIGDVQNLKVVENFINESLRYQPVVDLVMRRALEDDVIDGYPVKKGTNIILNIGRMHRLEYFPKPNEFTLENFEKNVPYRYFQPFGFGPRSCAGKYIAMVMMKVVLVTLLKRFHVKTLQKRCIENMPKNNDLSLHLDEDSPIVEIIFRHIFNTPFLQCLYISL
Description: co-IP.

B1: protein phosphatase 5 (PP5) (enzyme, UniProt P53042 1-499, looked up)
chain: MAMAEGERTECAEPPRDEPPAEGTLKRAEELKTQANDYFKAKDYENAIKFYSQAIELNPSNAIYYGNRSLAYLRTECYGYALGDATRAIELDKKYIKGYYRRAASNMALGKFRAALRDYETVVKVKPNDKDAKMKYQECSKIVKQKAFERAIAGDEHRRSVVDSLDIESMTIEDEYSGPKLEDGKVTITFMKDLMQWYKDQKKLHRKCAYQILVQVKEVLCKLSTLVETTLKETEKITVCGDTHGQFYDLLNIFELNGLPSETNPYIFNGDFVDRGSFSVEVILTLFGFKLLYPDHFHLLRGNHETDNMNQIYGFEGEVKAKYTAQMYELFSEVFEWLPLAQCINGKVLIMHGGLFSEDGVTLDDIRKIERNRQPPDSGPMCDLLWSDPQPQNGRSVSKRGVSCQFGPDVTKAFLEENQLDYIIRSHEVKAEGYEVAHGGRCVTVFSAPNYCDQMGNKASYIHLQGSDLRPQFHQFTAVPHPNVKPMAYANTLLQLGMM
Take B1: the “fold more co-IPed with hypothalamic than with spinal aromatase” value was determined as 5.4 fold.

The values are drawn from PMC9038631 (Journal of neuroendocrinology, 2022).
